Consider one protein from patent publication US20050002950.

In data set [1] the target is T1, recombinant human C5a, P01031.
T1 chain: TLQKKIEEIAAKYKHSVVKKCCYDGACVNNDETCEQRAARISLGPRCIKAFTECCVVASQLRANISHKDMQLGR

Data set [2] has as its target purified complement component C3.
The target of data set [3] is T2, purified human fibrinogen, depleted of fibronectin and plasminogen, P02671.
T2 chain 1: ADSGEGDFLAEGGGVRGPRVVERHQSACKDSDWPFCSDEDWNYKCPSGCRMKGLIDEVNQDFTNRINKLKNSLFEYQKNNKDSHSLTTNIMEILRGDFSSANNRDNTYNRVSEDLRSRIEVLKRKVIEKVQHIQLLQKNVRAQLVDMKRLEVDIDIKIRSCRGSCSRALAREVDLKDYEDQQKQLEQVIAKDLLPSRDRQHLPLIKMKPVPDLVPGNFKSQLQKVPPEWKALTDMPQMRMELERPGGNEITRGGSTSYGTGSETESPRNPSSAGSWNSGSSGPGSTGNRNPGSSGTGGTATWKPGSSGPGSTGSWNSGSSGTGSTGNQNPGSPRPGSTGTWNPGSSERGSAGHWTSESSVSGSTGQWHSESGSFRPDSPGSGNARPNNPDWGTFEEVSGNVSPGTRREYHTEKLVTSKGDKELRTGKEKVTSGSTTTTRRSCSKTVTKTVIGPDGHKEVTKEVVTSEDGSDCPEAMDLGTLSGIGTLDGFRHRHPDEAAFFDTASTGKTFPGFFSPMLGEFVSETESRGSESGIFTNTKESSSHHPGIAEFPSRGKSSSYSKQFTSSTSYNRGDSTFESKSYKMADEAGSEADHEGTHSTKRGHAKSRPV
T2 chain 2: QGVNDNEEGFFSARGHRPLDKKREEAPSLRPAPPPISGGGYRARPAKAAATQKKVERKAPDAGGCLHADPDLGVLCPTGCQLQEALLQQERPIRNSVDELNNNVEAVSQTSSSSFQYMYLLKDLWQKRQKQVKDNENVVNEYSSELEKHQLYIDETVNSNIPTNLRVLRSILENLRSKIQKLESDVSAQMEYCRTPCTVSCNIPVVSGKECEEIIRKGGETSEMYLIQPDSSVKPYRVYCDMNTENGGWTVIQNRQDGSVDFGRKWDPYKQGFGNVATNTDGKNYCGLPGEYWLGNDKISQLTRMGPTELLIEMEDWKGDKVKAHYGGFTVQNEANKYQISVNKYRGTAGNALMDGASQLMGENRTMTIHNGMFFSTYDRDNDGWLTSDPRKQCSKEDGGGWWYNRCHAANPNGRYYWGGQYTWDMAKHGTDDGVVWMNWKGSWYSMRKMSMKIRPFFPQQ
T2 chain 3: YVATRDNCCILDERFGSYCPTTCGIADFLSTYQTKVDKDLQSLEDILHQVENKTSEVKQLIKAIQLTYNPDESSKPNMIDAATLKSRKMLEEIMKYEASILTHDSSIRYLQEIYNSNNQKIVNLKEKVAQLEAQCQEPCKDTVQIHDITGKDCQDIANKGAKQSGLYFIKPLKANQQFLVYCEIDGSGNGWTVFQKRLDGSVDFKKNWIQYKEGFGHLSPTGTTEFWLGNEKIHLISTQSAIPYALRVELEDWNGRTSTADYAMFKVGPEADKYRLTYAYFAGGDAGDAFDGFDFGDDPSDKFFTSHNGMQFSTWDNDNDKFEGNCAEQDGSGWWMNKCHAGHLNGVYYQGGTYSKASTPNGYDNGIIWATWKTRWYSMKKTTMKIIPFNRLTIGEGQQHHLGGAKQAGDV

In data set [4] the target is purified human fibronectin, P02751.
Sequence of purified human fibronectin, P02751 (P02751 other isoform, or with tags, fused parts or gaps): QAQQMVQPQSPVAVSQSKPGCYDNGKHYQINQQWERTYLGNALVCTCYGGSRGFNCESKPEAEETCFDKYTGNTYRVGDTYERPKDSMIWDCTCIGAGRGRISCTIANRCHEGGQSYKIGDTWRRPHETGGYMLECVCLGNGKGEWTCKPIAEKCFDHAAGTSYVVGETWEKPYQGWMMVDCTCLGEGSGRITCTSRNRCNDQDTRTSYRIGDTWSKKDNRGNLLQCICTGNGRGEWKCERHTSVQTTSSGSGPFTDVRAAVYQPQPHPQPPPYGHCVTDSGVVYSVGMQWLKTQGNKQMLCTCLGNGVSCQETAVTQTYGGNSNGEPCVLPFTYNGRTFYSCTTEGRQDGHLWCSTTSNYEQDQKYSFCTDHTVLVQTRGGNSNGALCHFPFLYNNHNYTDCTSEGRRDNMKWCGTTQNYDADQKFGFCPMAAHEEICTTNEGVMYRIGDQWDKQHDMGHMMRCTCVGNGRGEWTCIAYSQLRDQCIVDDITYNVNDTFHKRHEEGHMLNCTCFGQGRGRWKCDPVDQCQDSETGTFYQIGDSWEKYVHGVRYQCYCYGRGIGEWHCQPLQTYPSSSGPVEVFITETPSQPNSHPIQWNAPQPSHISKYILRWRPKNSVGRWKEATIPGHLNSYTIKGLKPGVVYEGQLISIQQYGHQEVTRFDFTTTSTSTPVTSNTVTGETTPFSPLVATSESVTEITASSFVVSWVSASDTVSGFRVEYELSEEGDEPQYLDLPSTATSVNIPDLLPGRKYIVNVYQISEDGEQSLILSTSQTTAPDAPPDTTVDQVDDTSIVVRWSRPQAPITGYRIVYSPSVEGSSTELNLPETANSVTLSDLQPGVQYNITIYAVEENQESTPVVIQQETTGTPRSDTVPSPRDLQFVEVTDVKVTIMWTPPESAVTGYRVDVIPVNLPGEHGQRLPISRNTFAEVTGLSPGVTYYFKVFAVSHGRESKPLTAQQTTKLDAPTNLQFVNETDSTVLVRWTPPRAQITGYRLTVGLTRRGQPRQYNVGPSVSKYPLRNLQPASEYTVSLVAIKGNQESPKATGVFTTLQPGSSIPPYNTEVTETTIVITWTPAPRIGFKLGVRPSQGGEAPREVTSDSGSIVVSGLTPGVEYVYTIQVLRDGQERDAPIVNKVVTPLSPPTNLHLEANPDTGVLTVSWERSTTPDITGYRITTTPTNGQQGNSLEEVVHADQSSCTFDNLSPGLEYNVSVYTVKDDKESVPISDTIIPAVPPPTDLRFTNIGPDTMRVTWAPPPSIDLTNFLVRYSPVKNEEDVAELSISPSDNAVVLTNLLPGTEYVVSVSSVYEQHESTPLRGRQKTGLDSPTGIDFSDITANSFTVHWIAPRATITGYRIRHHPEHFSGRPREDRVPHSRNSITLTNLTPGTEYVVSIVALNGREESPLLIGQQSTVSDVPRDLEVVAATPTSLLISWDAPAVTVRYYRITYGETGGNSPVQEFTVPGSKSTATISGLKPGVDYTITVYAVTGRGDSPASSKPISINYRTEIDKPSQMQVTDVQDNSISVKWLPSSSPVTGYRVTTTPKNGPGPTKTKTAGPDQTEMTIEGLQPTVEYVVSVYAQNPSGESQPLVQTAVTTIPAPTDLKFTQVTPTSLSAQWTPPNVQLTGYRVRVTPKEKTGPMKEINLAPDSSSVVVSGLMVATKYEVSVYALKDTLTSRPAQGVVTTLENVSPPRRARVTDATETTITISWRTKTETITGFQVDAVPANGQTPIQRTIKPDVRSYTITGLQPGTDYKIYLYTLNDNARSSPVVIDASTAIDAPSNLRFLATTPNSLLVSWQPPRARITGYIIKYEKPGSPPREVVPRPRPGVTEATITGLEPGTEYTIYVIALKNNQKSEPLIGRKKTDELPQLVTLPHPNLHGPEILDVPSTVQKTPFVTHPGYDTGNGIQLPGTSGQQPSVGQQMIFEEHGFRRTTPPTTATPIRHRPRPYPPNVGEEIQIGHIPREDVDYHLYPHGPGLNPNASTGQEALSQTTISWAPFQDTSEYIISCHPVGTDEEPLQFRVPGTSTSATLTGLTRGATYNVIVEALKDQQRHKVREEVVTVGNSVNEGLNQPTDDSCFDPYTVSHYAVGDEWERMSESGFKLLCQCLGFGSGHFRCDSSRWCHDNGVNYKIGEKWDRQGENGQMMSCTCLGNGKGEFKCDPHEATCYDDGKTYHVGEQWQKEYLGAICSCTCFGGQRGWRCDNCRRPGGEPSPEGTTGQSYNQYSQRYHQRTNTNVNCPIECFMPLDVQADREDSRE

B1: CspA on whole cells of GBS strain COH1 (compared with the cspA mutant TOH121) (protein)
chain: DSVINKPSDIAVEQQVKDSPTSIANETPTNNTSSALASTAQDNLVTKANNNSPTETQPVTEPHSQATETFSPAANQPVESTQEVSKTPLTKQNLAVKPTPAISKETPQNIDSNKIITVPKVWNTGYKGEGTVVAIIDSGLDTNHDALQLNDSTKAKYQNEQQMNAAKAKAGINYGKWYNNKVIFGHNYVDVNTELKEVKSTSHGMHVTSIATANPSKKDTNELIYGVAPEAQVMFMRVFSDEKRGTGPALYVKAIEDAVKLGADSINLSLGGANGSLVNADDRLIKALEMARLAGVSVVIAAGNDGTFGSGASKPSALYPDYGLVGSPSTAREAISVASYNNTTLVNKVFNIIGLENNKNLNNGLAAYADPKVSDKTFEVGKQYDYVFVGKGNDNDYKDKTLNGKIALIERGDITFTKKVVNAINHGAVGAIIFNNKAGEANLTMSLDPEASAIPAIFTQKEFGDVLAKNNYKIVFNNIKNKQANPNAGVLSDFSSWGLTADGQLKPDLSAPGGSIYAAINDNEYDMMSGTSMASPHVAGATALVKQYLLKEHPELKKGDIERTVKYLLMSTAKAHLNKDTGAYTSPRQQGAGIIDVAAAVQTGLYLTGGENNYGSVTLGNIKDKISFDVTVHNINKVAKDLHYTTYLNTDQVKDGFVTLAPQQLGTFTGKTIRIEPGQTKTITIDIDVSKYHDMLKKVMPNGYFLEGYVRFTDPVDGGEVLSIPYVGFKGEFQNLEVLEKSIYKLVANKEKGFYFQPKQTNEVPGSEDYTALMTTSSEPIYSTDGTSPIQLKALGSYKSIDGKWILQLEQKGQPHLAISPNDDQNQDAVALKGVFLRNFNNLRAKVYRADDVNLQKPLWVSAPQAGDKNYYSGNTENPKSTFLYDTEWKGTTTDGIPLEDGKYKYVLTYYSDVPGSKPQQMVFDITLDRQAPTLTTATYDKDRRIFKARPAVEHGESGIFREQVFYLKKDKDGHYNSVLRQKGEDGILVEDNKVFIKQEKDGSFILPKEVNDFSHVYYTVEDYAGNLVSAKLEDLINIGNKNGLVNVKVFSPELNSNVDIDFSYSVKDDKGNVIKKQHHGKDLNLLKLPFGTYTFDLFLYDEERANLISPQSVTVTISEKDSLKDVLFKVNLLKKAALLVEFDKLLPKGATVQLVTKTNTVVDLPKATYSPTDYGKNIPVGDYRLNVTLPSGYSTLENLDDLLVSVKEGQVNLTKLTLINKAPLINALAEQTDIISQPVFYNAGTHLKNNYLANLEKAQTLIKNRVEQTSIDNAIAALRESRQALNGKETDTSLLAKAILAETEIKGNYQFVNASPLSQSTYINQVQLAKNLLQKPNVTQSEVDKALENLDIAKNQLNGHETDYSGLHHMIIKANVLKQTSSKYQNASQFAKENYNNLIKKAELLLSNRQATQAQVEELLNQIKATEQELDGRDRVSSAENYSQSLNDNDSLNTTPINPPNQPQALIFKKGMTKESEVAQKRVLGVTSQTDNQKIKTNKLPKTGESTPKITYTILLFSLSMLGLATIKLKSIKRE
With B1, the “C5a protease activity (C5a-stimulated PMN adherence to gelatin-coated plastic after preincubating C5a with GBS)” value in data set [1] is “inactivation of CspA did not appear to have a detectable effect on C5a activity”. In addition, the “degradation of the test substrate (Coomassie-stained SDS-PAGE or Western blotting)” value in data set [2] is “No difference in the cleavage of the test substrates was observed for all substrates except fibrinogen when the mutant and wild-type strains were compared”; in data set [4] it was “No difference in the cleavage of the test substrates was observed for all substrates except fibrinogen when the mutant and wild-type strains were compared”. In addition, in data set [3], the “fibrinogen degradation assay (SDS-PAGE of supernatant after 16 h with whole GBS)” value is listed as “COH1 cleaved the minor species (corresponding to the lower band of the doublet) of the α subunit, while the mutant did not cleave fibrinogen under the conditions employed”.
